# Results as given in the supplement of paper PMC9112550, “Optimization of the antimicrobial peptide Bac7 by deep mutational scanning” (BMC Biology, 2022).
# Test system: Escherichia coli TOP10
# Assay: shrunken log2 fold change of peptide-encoding DNA abundance (4.5 h post-induction vs induction); higher = less antimicrobial activity (less host growth inhibition)
# Details: time post-induction: 4.5 h; library: site-saturation at positions 5, 18, 19, 20
# 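Further: peptides expressed intracellularly from a pBAD plasmid library in pooled LB shake-flask culture, induced with 0.3% L-arabinose, DNA abundance read by NGS, three biological replicates, DESeq2 with apeglm shrinkage.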
row,Sequence,shrunken log2 fold change
1,RRIRTRPPRLPRPRPRPWSCPRP,-0.29
2,RRIRGRPPRLPRPRPRPVALPRP,0.639
3,RRIRYRPPRLPRPRPRPFISPRP,-0.341
4,RRIRKRPPRLPRPRPRPDPFPRP,-0.0704
5,RRIRDRPPRLPRPRPRPQVSPRP,0.0416
6,RRIRVRPPRLPRPRPRPEYCPRP,-0.154
7,RRIRIRPPRLPRPRPRPWYEPRP,-0.0153
8,RRIRGRPPRLPRPRPRPCVVPRP,0.293
9,RRIRHRPPRLPRPRPRPANCPRP,-0.246
10,RRIRTRPPRLPRPRPRPAVWPRP,0.556
11,RRIRMRPPRLPRPRPRPDTIPRP,0.0143
12,RRIRFRPPRLPRPRPRPTHYPRP,-0.0275
13,RRIRIRPPRLPRPRPRPAWHPRP,0.031
14,RRIRLRPPRLPRPRPRPLWEPRP,0.697
15,RRIRLRPPRLPRPRPRPEYNPRP,-0.15
16,RRIRERPPRLPRPRPRPNFWPRP,1.9
17,RRIRYRPPRLPRPRPRPFWEPRP,0.13
18,RRIRIRPPRLPRPRPRPTMEPRP,-0.523
19,RRIRFRPPRLPRPRPRPAQHPRP,0.265
20,RRIRLRPPRLPRPRPRPAFWPRP,0.292
21,RRIRPRPPRLPRPRPRPTQKPRP,0.0334
22,RRIRIRPPRLPRPRPRPSAQPRP,-0.0807
23,RRIRTRPPRLPRPRPRPGEVPRP,0.211

row,Sequence,shrunken log2 fold change
1,RRIRCRPPRLPRPRPRPRPDPRP,0.276
2,RRIRRRPPRLPRPRPRPTLQPRP,0.678
3,RRIRGRPPRLPRPRPRPAFLPRP,0.367
4,RRIRQRPPRLPRPRPRPHTDPRP,-0.228
5,RRIRKRPPRLPRPRPRPGKVPRP,0.248
6,RRIRWRPPRLPRPRPRPFRMPRP,-0.122
7,RRIRCRPPRLPRPRPRPSPPPRP,0.252
8,RRIRPRPPRLPRPRPRPGAYPRP,0.0679
9,RRIRNRPPRLPRPRPRPLPEPRP,-0.00875
10,RRIRTRPPRLPRPRPRPSICPRP,-0.899
11,RRIRERPPRLPRPRPRPLNYPRP,-0.176
12,RRIRWRPPRLPRPRPRPNLTPRP,-0.222
13,RRIRVRPPRLPRPRPRPHTHPRP,-0.414
14,RRIRKRPPRLPRPRPRPDLQPRP,0.0789
15,RRIRPRPPRLPRPRPRPFNNPRP,-0.836
16,RRIRMRPPRLPRPRPRPGCVPRP,0.967
17,RRIRHRPPRLPRPRPRPTYYPRP,-0.0104
18,RRIRCRPPRLPRPRPRPMNKPRP,-0.32
19,RRIRHRPPRLPRPRPRPFCQPRP,-0.243
20,RRIRMRPPRLPRPRPRPHRGPRP,0.0388
21,RRIRRRPPRLPRPRPRPEFMPRP,0.377
22,RRIRPRPPRLPRPRPRPWHHPRP,-0.209
23,RRIRSRPPRLPRPRPRPSDNPRP,-0.249

row,Sequence,shrunken log2 fold change
1,RRIRGRPPRLPRPRPRPMMQPRP,1
2,RRIRKRPPRLPRPRPRPCATPRP,0.242
3,RRIRERPPRLPRPRPRPMDAPRP,-0.0623
4,RRIRNRPPRLPRPRPRPKLIPRP,-0.0332
5,RRIRSRPPRLPRPRPRPHLKPRP,-0.137
6,RRIRMRPPRLPRPRPRPLSAPRP,1.19
7,RRIRDRPPRLPRPRPRPGAWPRP,4.01
8,RRIRLRPPRLPRPRPRPSRNPRP,-0.0105
9,RRIRHRPPRLPRPRPRPNSPPRP,-0.337
10,RRIRVRPPRLPRPRPRPPCQPRP,0.0844
11,RRIRCRPPRLPRPRPRPFEIPRP,-0.341
12,RRIRGRPPRLPRPRPRPWGVPRP,0.287
13,RRIRDRPPRLPRPRPRPNCAPRP,-0.0166
14,RRIRLRPPRLPRPRPRPLQYPRP,-0.316
15,RRIRIRPPRLPRPRPRPFIYPRP,-0.899
16,RRIRARPPRLPRPRPRPACYPRP,0.489
17,RRIRIRPPRLPRPRPRPGMKPRP,-0.126
18,RRIRCRPPRLPRPRPRPVDWPRP,1.33
19,RRIRERPPRLPRPRPRPEYQPRP,0.00497
20,RRIRQRPPRLPRPRPRPMYYPRP,0.0048
21,RRIRHRPPRLPRPRPRPEIVPRP,-0.0182
22,RRIRCRPPRLPRPRPRPDPQPRP,0.17
23,RRIRNRPPRLPRPRPRPYCGPRP,-0.352

row,Sequence,shrunken log2 fold change
1,RRIRERPPRLPRPRPRPMDGPRP,0.0211
2,RRIRPRPPRLPRPRPRPCIYPRP,-0.536
3,RRIRPRPPRLPRPRPRPLRAPRP,0.86
4,RRIRGRPPRLPRPRPRPMEPPRP,0.245
5,RRIRFRPPRLPRPRPRPHPFPRP,-0.105
6,RRIRPRPPRLPRPRPRPCQFPRP,-0.246
7,RRIRDRPPRLPRPRPRPNLIPRP,-0.15
8,RRIRGRPPRLPRPRPRPQHMPRP,0.231
9,RRIRSRPPRLPRPRPRPYYTPRP,-0.576
10,RRIRWRPPRLPRPRPRPGDEPRP,0.0372
11,RRIRLRPPRLPRPRPRPPLDPRP,0.436
12,RRIRKRPPRLPRPRPRPSHTPRP,-0.0409
13,RRIRCRPPRLPRPRPRPGRYPRP,0.0533
14,RRIRDRPPRLPRPRPRPVGEPRP,0.55
15,RRIRFRPPRLPRPRPRPQFQPRP,0.0151
16,RRIRPRPPRLPRPRPRPKWWPRP,0.235
17,RRIRIRPPRLPRPRPRPGGRPRP,0.229
18,RRIRSRPPRLPRPRPRPASKPRP,0.019
19,RRIRSRPPRLPRPRPRPPMDPRP,-0.0324
20,RRIRFRPPRLPRPRPRPFTIPRP,-0.313
21,RRIRWRPPRLPRPRPRPYEMPRP,-0.893
22,RRIRSRPPRLPRPRPRPMHCPRP,0.377
